Measurements reported in US20040086945A1, “Hairless protein-interacting partner complexes and methods thereto” (The Procter & Gamble Company, priority 2002, published 2004).

T1: mouse HRt (hairless protein aa 490-1182) (Mus musculus, UniProt Q61645)
T1 construct: HR cDNA corresponding to the C-terminal half of HR protein (aa residues 490 to 1182, hereinafter HRt); expressed in transfected cells; host or cells: Saccharomyces cerevisiae PJ69-2A transformed with BD-HRt plasmid, mated with Y187 carrying the human brain cDNA library in pACT2
T1 sequence (Q61645 490-1182): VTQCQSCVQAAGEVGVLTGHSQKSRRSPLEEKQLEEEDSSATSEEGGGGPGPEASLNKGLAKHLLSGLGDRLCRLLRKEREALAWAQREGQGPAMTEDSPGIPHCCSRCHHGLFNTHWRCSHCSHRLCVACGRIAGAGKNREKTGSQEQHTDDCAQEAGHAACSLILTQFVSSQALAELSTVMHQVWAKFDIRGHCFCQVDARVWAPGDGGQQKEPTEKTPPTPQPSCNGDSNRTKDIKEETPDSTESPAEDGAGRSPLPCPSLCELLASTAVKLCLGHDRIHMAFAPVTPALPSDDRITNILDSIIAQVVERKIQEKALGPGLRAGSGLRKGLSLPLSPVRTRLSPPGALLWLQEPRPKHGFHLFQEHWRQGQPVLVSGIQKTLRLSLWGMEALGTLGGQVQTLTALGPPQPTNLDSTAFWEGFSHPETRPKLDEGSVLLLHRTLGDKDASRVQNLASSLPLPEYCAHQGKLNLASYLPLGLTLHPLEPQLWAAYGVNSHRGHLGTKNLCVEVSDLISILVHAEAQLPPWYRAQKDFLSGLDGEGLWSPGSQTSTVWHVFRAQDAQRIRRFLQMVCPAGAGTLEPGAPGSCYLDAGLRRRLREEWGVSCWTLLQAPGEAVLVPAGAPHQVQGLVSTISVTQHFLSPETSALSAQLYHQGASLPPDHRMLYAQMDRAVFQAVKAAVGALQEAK


Target: T1, mouse HRt (hairless protein aa 490-1182)
Assay: Yeast two-hybrid screen of BD-HRt against human brain cDNA library in AD vector, lacZ coloration on QDO-Xgal plates
Type: cell-based
Settings: BD-HRt(mouse) x human brain cDNA library in AD-vector
Excerpt: The present example provides for Hairless Protein (HR) interacting partners (HR-IP) using the yeast two-hybrid technology. […] Yeast cells expressing BD-HRt are mated with yeast cells pretransformed with human brain cDNA library in the activation domain (AD) vector.
Cloning of HRt into GAL4 binding domain (BD) yeast two-hybrid (Y2H) vector: The HRt insert from pET32a-HRt is excised as an Eco RI-Xho I fragment (there is a unique Xho I site just adjacent to HRt insert) and inserted at the Eco RI-Sal I sites of Y2H-BD vector pGBKT7 (Catalog No. K1612-B; a component of Matchmaker two-hybrid System 3 (Catalog No. K1612-1) BD Biosciences Clontech, Palo Alto, Calif.) to obtain pGBKT7-HRt in which HRt is fused in-frame to GAL 4 DNA BD (this plasmid is also designated BD-HRt).
Pretransformed human brain […] cDNA Library Screen for HRt interaction partners: Pretransformed human brain […] high-complexity GAL4 cDNA library that has already been amplified and introduced into yeast strain Y187 (MATα) is used to screen for HRt interacting proteins. […] The library host strain Y187 provides a third reporter gene (lacZ) for optional quantification of signal strength. The protocol as described in Clontech user manual (PT3183-1) is used. Briefly, the library is mixed with PJ69-2A strain that has been transformed with the BD-HRt plasmid in YPD medium containing adenine hemisulfate (0.004%) and kanamycin (0.005%) and incubated for 20-24 h at 30° C. The next day, the mating mixture is plated on Leu, Trp, His TDO that selects for two-hybrid interactions, and then the positive clones are screened for growth on Leu, Trp, His, Ade QDO, which is a more stringent condition for interaction. Colonies that grew well on QDO are also screened for lacZ expression by streaking on QDO-Xgal plates. Based on a visual assessment of colonies for the intensity of blue color, the clones are classified into high (H), medium (M), low (L) or very low (VL) categories.
The positive clones are expected to contain an AD-IP (interacting partner) that interacts with BD-HRt. To characterize IP, the sequence of IP is determined and matched to the human genome database. For this purpose, total DNA is isolated from the positive clones and PCR amplified with […] AD LD (long distance)-insert screening amplimers (Catalog No.9103-1; BD Biosciences Clontech, PaloAlto, Calif.). Reaction is conducted in 50 μl volume for 35 cycles using the conditions recommended with the Advantage2 PCR kit (Catalog No. K1910-1; BD Biosciences Clontech, PaloAlto, Calif.).

Molecule	XGAL (rate and intensity of coloration of colonies on Xgal)
Human hypothalamus protein HSMNP1: human HRt interacting partner, GenBank AF220191, SEQ ID NO:30/31 (protein, listed as Homo sapiens) DRRFSRSAIPEQIISSTLSSPSSNAPDPCAKETVLSALKEKKKKRTVEEEDQIFLDGQENKRSCLVDGLTDASSAFKVPRPGPDTLQFTVDVFHFANDSRNMIYITCHLKVTLAEQDPDELNKACSFSKPSNSWFPVEGPADICQCCNKGDCGTPSHSRRQPRVVSQWSTSASRNRRHVTEEADVTVGATDLPGQEW	M (M = Medium blue in 3-5 days)
Human alpha enolase: human HRt interacting partner, GenBank M14328, SEQ ID NO:32/33 (protein, listed as Homo sapiens) DGEPCFSCLYGNGPHPPAPQPSSRFNDAPAADKEPSVVQFCEFVSAPEVSRWAGPIIDVLLDYVGNVQLCSRLKEHIDSFEDWAVIKEKAEPPRPLAHLCRLRVRKAIGKYRIKLLDTLPLPGRLIRYLKYENTQ	M (M = Medium blue in 3-5 days)
Human POM-ZP3: human HRt interacting partner, GenBank U10099, SEQ ID NO:36/37 (protein, listed as Homo sapiens) LEQKLALAERIRGHVLSLALQMYGCRVIQKALEFIPSDQQNEMVRELDGHVLKCVKDQNGNHVVQKCIECVQPQSLQFIIDAFKGQVFALSTHP	M (M = Medium blue in 3-5 days)
Human quinone oxidoreductase(NQO2): human HRt interacting partner, GenBank J02888, SEQ ID NO:40/41 (protein, listed as Homo sapiens) PDSNAIRPQLVPHHRTTQQEAGGTMTSATQSARAFSRAPPQTSLWPALPSSLELELLQRQPQQASLHIEVAGPIAQTRETHRELYVFIFLL	M (M = Medium blue in 3-5 days)
Human pumilio(PUMH1): human HRt interacting partner, GenBank D43951, SEQ ID NO:44/45 (protein, UniProt Q14671 2-1186, looked up) Pumilio homolog 1: SVACVLKRKAVLWQDSFSPHLKHHPQEPANPNMPVVLTSGTGSQAQPQPAANQALAAGTHSSPVPGSIGVAGRSQDDAMVDYFFQRQHGEQLGGGGSGGGGYNNSKHRWPTGDNIHAEHQVRSMDELNHDFQALALEGRAMGEQLLPGKKFWETDESSKDGPKGIFLGDQWRDSAWGTSDHSVSQPIMVQRRPGQSFHVNSEVNSVLSPRSESGGLGVSMVEYVLSSSPGDSCLRKGGFGPRDADSDENDKGEKKNKGTFDGDKLGDLKEEGDVMDKTNGLPVQNGIDADVKDFSRTPGNCQNSANEVDLLGPNQNGSEGLAQLTSTNGAKPVEDFSNMESQSVPLDPMEHVGMEPLQFDYSGTQVPVDSAAATVGLFDYNSQQQLFQRPNALAVQQLTAAQQQQYALAAAHQPHIGLAPAAFVPNPYIISAAPPGTDPYTAGLAAAATLGPAVVPHQYYGVTPWGVYPASLFQQQAAAAAAATNSANQQTTPQAQQGQQQVLRGGASQRPLTPNQNQQGQQTDPLVAAAAVNSALAFGQGLAAGMPGYPVLAPAAYYDQTGALVVNAGARNGLGAPVRLVAPAPVIISSSAAQAAVAAAAASANGAAGGLAGTTNGPFRPLGTQQPQPQPQQQPNNNLASSSFYGNNSLNSNSQSSSLFSQGSAQPANTSLGFGSSSSLGATLGSALGGFGTAVANSNTGSGSRRDSLTGSSDLYKRTSSSLTPIGHSFYNGLSFSSSPGPVGMPLPSQGPGHSQTPPPSLSSHGSSSSLNLGGLTNGSGRYISAAPGAEAKYRSASSASSLFSPSSTLFSSSRLRYGMSDVMPSGRSRLLEDFRNNRYPNLQLREIAGHIMEFSQDQHGSRFIQLKLERATPAERQLVFNEILQAAYQLMVDVFGNYVIQKFFEFGSLEQKLALAERIRGHVLSLALQMYGCRVIQKALEFIPSDQQNEMVRELDGHVLKCVKDQNGNHVVQKCIECVQPQSLQFIIDAFKGQVFALSTHPYGCRVIQRILEHCLPDQTLPILEELHQHTEQLVQDQYGNYVIQHVLEHGRPEDKSKIVAEIRGNVLVLSQHKFASNVVEKCVTHASRTERAVLIDEVCTMNDGPHSALYTMMKDQYANYVVQKMIDVAEPGQRKIVMHKIRPHIATLRKYTYGKHILAKLEKYYMKNGVDLGPICGPPNGII	M (M = Medium blue in 3-5 days)
Human VPS41: human HRt interacting partner, GenBank U87309, SEQ ID NO:46/47 (protein, UniProt P49754 1-854, looked up) Vacuolar protein …: MAEAEEQETGSLEESTDESEEEESEEEPKLKYERLSNGVTEILQKDAASCMTVHDKFLALGTHYGKVYLLDVQGNITQKFDVSPVKINQISLDESGEHMGVCSEDGKVQVFGLYSGEEFHETFDCPIKIIAVHPHFVRSSCKQFVTGGKKLLLFERSWMNRWKSAVLHEGEGNIRSVKWRGHLIAWANNMGVKIFDIISKQRITNVPRDDISLRPDMYPCSLCWKDNVTLIIGWGTSVKVCSVKERHASEMRDLPSRYVEIVSQFETEFYISGLAPLCDQLVVLSYVKEISEKTEREYCARPRLDIIQPLSETCEEISSDALTVRGFQENECRDYHLEYSEGESLFYIVSPRDVVVAKERDQDDHIDWLLEKKKYEEALMAAEISQKNIKRHKILDIGLAYINHLVERGDYDIAARKCQKILGKNAALWEYEVYKFKEIGQLKAISPYLPRGDPVLKPLIYEMILHEFLESDYEGFATLIREWPGDLYNNSVIVQAVRDHLKKDSQNKTLLKTLAELYTYDKNYGNALEIYLTLRHKDVFQLIHKHNLFSSIKDKIVLLMDFDSEKAVDMLLDNEDKISIKKVVEELEDRPELQHVYLHKLFKRDHHKGQRYHEKQISLYAEYDRPNLLPFLRDSTHCPLEKALEICQQRNFVEETVYLLSRMGNSRSALKMIMEELHDVDKAIEFAKEQDDGELWEDLILYSIDKPPFITGLLNNIGTHVDPILLIHRIKEGMEIPNLRDSLVKILQDYNLQILLREGCKKILVADSLSLLKKMHRTQMKGVLVDEENICESCLSPILPSDAAKPFSVVVFHCRHMFHKECLPMPSMNSAAQFCNICSAKNRGPGSAILEMKK	M (M = Medium blue in 3-5 days)
Human alpha-tubulin: human HRt interacting partner, GenBank AF141348, SEQ ID NO:50 (protein, listed as Homo sapiens) QSLGLLDQNPHLAQELRPQIQELLHSEHLGPSELEAPAPGGSSEDKGGLQPPDSKDADTPMTLPKGSTEQDAASPEKEKMNPLEQYERKVNASVPRGFPFHSSEIQRDELAPAGTGVSREAVSGLLIMGAGGGSLIVLSMLLLRRKKPYGAISHGVVEVDPMLTLEEQQLRELQRHGYENPTYRFLEERP	L (L = Low blue in 5-7 days)
Human transcription factor Y, gamma: human HRt interacting partner, GenBank BC005003, SEQ ID NO:53/54 (protein, UniProt Q13952 1-458, looked up) Nuclear transcription factor …: MSTEGGFGGTSSSDAQQSLQSFWPRVMEEIRNLTVKDFRVQELPLARIKKIMKLDEDVKMISAEAPVLFAKAAQIFITELTLRAWIHTEDNKRRTLQRNDIAMAITKFDQFDFLIDIVPRDELKPPKRQEEVRQSVTPAEPVQYYFTLAQQPTAVQVQGQQQGQQTTSSTTTIQPGQIIIAQPQQGQTTPVTMQVGEGQQVQIVQAQPQGQAQQAQSGTGQTMQVMQQIITNTGEIQQIPVQLNAGQLQYIRLAQPVSGTQVVQGQIQTLATNAQQGQRNASQGKPRRCLKETLQITQTEVQQGQQQFSQFTDGQRNSVQQARVSELTGEAEPREVKATGNSTPCTSSLPTTHPPSHRAGASCVCCSQPQQSSTSPPPSDALQWVVVEVSGTPNQLETHRELHAPLPGMTSLSPLHPSQQLYQIQQVTMPAGQDLAQPMFIQSANQPSDGQAPQVTGD	L (L = Low blue in 5-7 days)
